Here are results for 5 substances from paper PMC7096399.

A word on the stoichiometry N: it is the number of molecules, sites or subunits per partner or assembly.

Assay [1] has as its target His6-tagged FGF2 (Fibroblast Growth Factor 2, 18 kDa isoform), wild type, P09038-2. The assay can be described thus: AlphaScreen. The note with it: His-FGF2 and GST-α1-subCD3 variants cross-titrated from 500 to 8 nM in PBS, 0.1% (w per v) BSA, 0.05% (w per v) Tween 20; selected concentration pairs …; parent: est. 100; read off a plot.
Assay [2] addresses α1-subCD3 as used in cross-linking and NMR experiments (migrates at 27 kDa) (human) (UniProt P05023). As to the kind of experiment: cross-linking; BMOE (1:1 to protein) or DSG (4:1) at 25 °C in HK buffer (25 mM Hepes pH 7.4, 150 mM KCl); single proteins 10 µM, mixtures 20 µM total at ratios 1:1, 1:2, 2:1; SDS-PAGE with Coomassie staining or western blot. Background: Immunoblotting shows a protein as a band on a membrane.

Turning to “GST-α1-subCD3, small sub-domain of loop 3 of the cytoplasmic domain of α1 (from UniProt P05023) K524M; E525Q”, in assay [1], the percent of parent came out at 100%.

On to “GST-α1-subCD3, small sub-domain of loop 3 of the cytoplasmic domain of α1, P05023 K524M; E525Q; E498Q”, for which the percent of parent in assay [1] was determined as 110%. “His6-tagged FGF2 (Fibroblast Growth Factor 2, 18 kDa isoform), wild type (from UniProt P09038-2 1-155) (natural protein)”: the stoichiometry N in assay [2] stood at 1.

“GST-α1-subCD3, small sub-domain of loop 3 of the cytoplasmic domain of α1 (from UniProt P05023) K524E; E525R”: the percent of parent in assay [1] is 100%. On the same count and under the same terms, for “GST-α1-subCD3, small sub-domain of loop 3 of the cytoplasmic domain of α1, P05023 D560N” the value was 60%.
